Measurements published in the supplement of paper PMC6757056.
± gives the standard deviation of the averaged measurements.

B1: library; a variant is named by its letters at N, in order (parent)
chain: GCUGUCACCGGUGCUUGGUACGUUAUAUUCAGCCGGUCUGAUGAGUCUNNNNNNAGACGAAACAGC

Variants of: B1
Test: normalized RNA/DNA level without ligand (relative to sTRSVctl = 100) (log10 (% of sTRSVctl)); HEK293T overexpressing SLC46A1; higher = less ribozyme self-cleavage, higher mRNA level
Conditions: without (6R,S)-folinic acid; ligand present: no
Summary of the method: (§1)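 Only sequences with at least 100 DNA reads were analyzed, from HEK293T cells transfected with 4 µg per 6-well well of ribozyme switch library plasmids 72 h before RNA extraction with EDTA. Any ligand was added 1 h before transfection. RNA level was defined as RNA over DNA reads, normalized to a spiked-in non-cleaving sequence or to the top sequences, then scaled and log-transformed. The top set was 25 sequences, and the scaling was ×100 followed by log10.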

Row | Variant | normalized RNA/DNA level without ligand (log10)
1 | CUUUAG | 1.97 ± 0.024
2 | CUUUAA | 1.978 ± 0.0046
3 | AUUUGU | 1.945 ± 0.002
4 | AUUUGA | 1.965 ± 0.0074
5 | AUUUGC | 2 ± 0.02
6 | UUUGUG | 1.73 ± 0.051
7 | UUUGUC | 2.069 ± 0.018
8 | UUUGUU | 1.944 ± 0.0033
9 | UUUGUA | 1.959 ± 0.0085
10 | GUUAAU | 1.9687 ± 4.4e-05
11 | GUUAAG | 1.96 ± 0.006
12 | GUUAAC | 1.976 ± 0.0067
13 | GUUAAA | 1.991 ± 0.011
14 | UUGUCG | 1.94 ± 0.032
15 | UUGUCU | 2.053 ± 0.0052
16 | GUUCGU | 1.998 ± 0.019
17 | GUUCGA | 2.018 ± 0.0029
18 | AUUAUA | 1.9581 ± 0.0013
19 | AUUAUG | 1.94 ± 0.021
20 | AUUAUC | 2.062 ± 0.01

Row | Variant | normalized RNA/DNA level without ligand (log10)
21 | AUUAGU | 1.95 ± 0.028
22 | AUUAGC | 1.987 ± 0.0093
23 | AUUGGG | 1.7701 ± 0.00019
24 | AUUGGC | 2.011 ± 0.012
25 | AUUGGU | 1.884 ± 0.011
26 | AUUCAU | 2 ± 0.026
27 | AUUCAA | 1.9988 ± 0.0016
28 | AUUCAC | 2.04 ± 0.0098
29 | UUUUUU | 2.017 ± 0.014
30 | UUUUUC | 2.05 ± 0.026
31 | UUUUUA | 2.002 ± 0.0053
32 | UUUCUA | 2.019 ± 0.011
33 | UUUCUC | 2.118 ± 0.0058
34 | UUUCUU | 2.043 ± 0.0064
35 | AUUGCC | 2.02 ± 0.029
36 | AUUGCU | 2.015 ± 0.0026
37 | AUUGCA | 1.976 ± 0.0096
38 | CUUCAU | 2 ± 0.0049
39 | CUUCAA | 2.023 ± 0.0088
40 | CUUCAC | 2.027 ± 0.0051

Row | Variant | normalized RNA/DNA level without ligand (log10)
41 | CUUCAG | 2.027 ± 0.015
42 | UUGUGU | 2.03 ± 0.011
43 | UUGUGG | 1.888 ± 0.0042
44 | UUGUGA | 1.96 ± 0.0028
45 | UUGUGC | 2.018 ± 0.0046
46 | GUUCCU | 2.03 ± 0.0037
47 | GUUCCG | 2.032 ± 0.011
48 | GUUCCC | 2.075 ± 0.018
49 | UUUACG | 1.859 ± 0.0091
50 | UUUACA | 2.0168 ± 0.00066
51 | CUUAGG | 2.041 ± 0.018
52 | CUUAGA | 2.03 ± 0.01
53 | CUUAGU | 2.01 ± 0.0085
54 | CUUAGC | 2.008 ± 0.019
55 | UUUGGU | 1.953 ± 0.013
56 | UUUGGC | 1.995 ± 0.0079
57 | GUUUCG | 1.99 ± 0.027
58 | GUUUCU | 1.965 ± 0.012
59 | GUUUCA | 2.03 ± 0.034

Variants of: B1
Test: normalized RNA/DNA level with ligand (relative to sTRSVctl = 100) (log10 (% of sTRSVctl)); HEK293T overexpressing SLC46A1; ligand concentration (+) RNA-Seq: 6 mM; higher = less ribozyme self-cleavage, higher mRNA level
Conditions: with (6R,S)-folinic acid; ligand present: yes
Summary of the method: as §1

Row | Variant | normalized RNA/DNA level with ligand (log10)
60 | CUUUAG | 1.9987 ± 0.00067
61 | CUUUAA | 2 ± 0.026
62 | AUUUGU | 2.02 ± 0.042
63 | AUUUGA | 2 ± 0.053
64 | AUUUGC | 1.99 ± 0.026
65 | UUUGUG | 1.95 ± 0.046
66 | UUUGUC | 2.034 ± 0.02
67 | UUUGUU | 1.99 ± 0.032
68 | UUUGUA | 2.007 ± 0.014
69 | GUUAAU | 2.04 ± 0.026
70 | GUUAAG | 2.02 ± 0.027
71 | GUUAAC | 2.024 ± 0.015
72 | GUUAAA | 2 ± 0.039
73 | UUGUCG | 2.03 ± 0.034
74 | UUGUCU | 2.09 ± 0.022
75 | GUUCGU | 2.01 ± 0.035
76 | GUUCGA | 2.001 ± 0.015
77 | AUUAUA | 1.97 ± 0.025
78 | AUUAUG | 2.02 ± 0.033
79 | AUUAUC | 2.03 ± 0.022

Row | Variant | normalized RNA/DNA level with ligand (log10)
80 | AUUAGU | 2.01 ± 0.028
81 | AUUAGC | 2.021 ± 0.0097
82 | AUUGGG | 1.99 ± 0.033
83 | AUUGGC | 2.05 ± 0.012
84 | AUUGGU | 1.99 ± 0.056
85 | AUUCAU | 2.0232 ± 0.0017
86 | AUUCAA | 2.01 ± 0.029
87 | AUUCAC | 1.994 ± 0.019
88 | UUUUUU | 2.03 ± 0.032
89 | UUUUUC | 2.01 ± 0.026
90 | UUUUUA | 2.007 ± 0.014
91 | UUUCUA | 2.042 ± 0.0037
92 | UUUCUC | 2.062 ± 0.014
93 | UUUCUU | 2.02 ± 0.021
94 | AUUGCC | 2.02 ± 0.055
95 | AUUGCU | 1.979 ± 0.012
96 | AUUGCA | 1.98 ± 0.05
97 | CUUCAU | 1.99 ± 0.037
98 | CUUCAA | 2.05 ± 0.042
99 | CUUCAC | 1.988 ± 0.011

Row | Variant | normalized RNA/DNA level with ligand (log10)
100 | CUUCAG | 2.099 ± 0.011
101 | UUGUGU | 2.05 ± 0.031
102 | UUGUGG | 2.06 ± 0.044
103 | UUGUGA | 2.04 ± 0.031
104 | UUGUGC | 2.053 ± 0.02
105 | GUUCCU | 2.04 ± 0.045
106 | GUUCCG | 2.02 ± 0.04
107 | GUUCCC | 2.052 ± 0.017
108 | UUUACG | 1.98 ± 0.03
109 | UUUACA | 2.029 ± 0.0067
110 | CUUAGG | 2.052 ± 0.014
111 | CUUAGA | 2.04 ± 0.029
112 | CUUAGU | 2.014 ± 0.0092
113 | CUUAGC | 2.01 ± 0.08
114 | UUUGGU | 1.98 ± 0.071
115 | UUUGGC | 2.04 ± 0.027
116 | GUUUCG | 1.99 ± 0.039
117 | GUUUCU | 1.97 ± 0.068
118 | GUUUCA | 1.99 ± 0.04
